Residues, ends and D or L forms follow the SMILES beside them. No end group written: not given here. *: point of attachment. Biotin = O=C1N[C@H]2[C@H](CS[C@H]2CCCCC(=O)*)N1
Experiments:
[1] = target: T1, ZO-1 d2 (Homo sapiens, UniProt Q07157, DEL264-264); test: G3 assay titration, GST-PDZ fusion / biotinylated peptide; format: binding
T1 construct: made in house; host or cells: E. coli (DH5alpha, BL21 or JM109)
T1 sequence (Q07157 with tags, fused parts or gaps DEL264-264): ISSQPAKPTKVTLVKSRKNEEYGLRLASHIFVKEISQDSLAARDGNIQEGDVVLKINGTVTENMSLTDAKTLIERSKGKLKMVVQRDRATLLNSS
Experimental: The G3 assay is identical to the G0 assay with the following exceptions. The peptides are typically present at 0.1 μM rather than 20 μM. The peptides are also pre-incubated with the HRP-streptavidin prior to adding to the assay plate. In the G0 assay, free peptide is incubated with the PDZ proteins prior to the addition of the HRP-streptavidin. Thus, for the G0 assay one can lose signal if the bound peptide dissociates from the PDZ protein prior to the addition of the HRP-streptavidin. In the G3 modified assay the HRP-streptavidin/peptide complex is added to the plate in one step, thus increasing the likelihood that all the bound peptide will be bound to HRP-streptavidin. The G3 modified assay increases the chance of observing weak interactions.
This example describes assays to identify binding between TRPM7 and PDZ domains. GST-PDZ fusions are produced that each contain an entire PDZ domain (or multiple PDZ domains), the collection encompassing approximately 90% of all PDZ domains identified in the human genome. (See Table 5 and Section V (PDZ Proteins and PL Protein Interactions Disclosure). Biotinylated peptide corresponding to 11 residues of Tat coupled to the C-terminal 9 amino acids of TRPM7 ([…]; SEQ ID NO:258) is synthesized and purified by HPLC.
• Nunc MaxiSorp 96 well Immuno-plate, Nunc • PBS pH 7.4 (phosphate buffered saline, 8 g NaCl, 0.29 g KCl, 1.44 g Na2HPO4, 0.24 g KH2PO4, add H2O to 1 liter and pH 7.4; 0.2 μm filter) • Assay Buffer: 2% BSA in PBS (20 g of bovine serum albumin per liter PBS, fraction V, ICN Biomedicals, cat#IC15142983 • Goat anti-GST polyclonal Ab, stock 5 mg/ml, stored at 4° C., Amersham Pharmacia cat#27-4577-01 • Dilute 1:1000 in PBS, final concentration 5 μg/ml. • HRP-Streptavidin, 2.5 mg/2 ml stock stored at 4° C., Zymed cat#43-4323, dilute 1:2000 into Assay buffer, final concentration of […] • Wash Buffer, PBS • Biotinylated peptides (HPLC purified, stock solution stored in −20° C. freezer) • GST-PRISM proteins (stock stored at −80° C., after 1st thaw store in −10° C. freezer) • TMB (3,3′,5,5′, teramethylbensidine), tablets, Sigma cat.#T5525 • Per plate, dissolve 1 tablet in 1 ml DMSO, add 9 ml Citrate/Phosphate buffer pH 5.4 and 2 μL H2O2 • 0.1 M H2SO4, Sigma cat.#S1526 • 12-w multichannel pipettor & tips • 50 ml reagent reservoirs, Costar#4870 • 50, 15 ml polypropylene conical tubes • Costar Transtar 96 Costar #7605 • Transtar 96 Cartridge Costar #7610 • Molecular Devices microplate reader (450 & 650 nm filters) with SoftMax Pro software *When using reagents stored at or 4° C. or −20° C., remove & keep on ice
• 1. Coat plate with 100 μl of 5 μg/ml anti-GST, overnight at 4° C. • 2. Dump contents of plate & out tap dry on paper towels • 3. Block with 200 μl Assay Buffer for 2 hrs at room temperature • 4. Prepare proteins at 5 μg/ml in Assay Buffer • 5. Wash 3× with cold PBS (4° C.), avoiding letting the plates dry out • 6. Add proteins at 50 μl per well, incubate 1 to 2 hrs at 4° C. • 7. Prepare peptides to desired concentration in Assay Buffer • 8. Wash 3× with cold PBS (4° C.), avoiding letting the plates dry out • 9. Add HRP-Streptavidin/peptide complex [prepared by incubating for 20 minutes at room temperature HRP-Streptavidin (1:2000) with the desired biotin-peptide concentration for 20 minutes at room temperature] at 50 μl per well on ice • 10. Place at room temperature for exactly 30 minutes • 11. Promptly wash 5× with PBS at room temperature • 12. Add 100 μl/well TMB substrate (write time on plate) • 13. Incubate in dark at room temperature for a maximum of 30 minutes • 14. Read plate at 25 minutes (650 nm), optional • 15. Stop reaction with 100 μl of 0.18 M H2SO4, 30 minutes after adding TMB • Take last reading at 450 nm soon after stopping reaction
The G3 assay was performed using 0.1 μM peptide representing 11 amino acids of Tat fused to the final 9 amino acids of TRPM7 ([…]; SEQ ID NO:258). […]

[2] = target: T2, INADL d3 (Homo sapiens, UniProt Q8NI35); test: G assay, peptide binding to GST-PDZ fusion (Table 11); conditions: Table 11, titrations or binding assays
T2 construct: made in house; host or cells: E. coli (DH5alpha, BL21 or JM109)
T2 sequence (Q8NI35 with tags, fused parts or gaps): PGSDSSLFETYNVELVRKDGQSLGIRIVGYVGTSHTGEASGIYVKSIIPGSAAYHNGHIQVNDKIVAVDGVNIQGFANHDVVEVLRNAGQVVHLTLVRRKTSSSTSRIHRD
Experimental: (§1) The binding of labeled PL peptide (e.g., as listed in TABLE 2 and TABLE 4) to this surface is then measured. In a preferred embodiment, the assay is carried out as follows:
(§2) (1) A PDZ-domain polypeptide is bound to a surface, e.g. a protein binding surface. In a preferred embodiment, a GST/PDZ fusion protein containing one or more PDZ domains is bound to a polystyrene 96-well plate. […] In one embodiment, the GST/PDZ fusion protein is bound via an anti-GST antibody that is coated onto the 96-well plate. Adequate binding to the plate can be achieved when:
(§3) (2) Biotinylated PL peptides are allowed to react with the surface by addition of 50 μl per well of 20 μM solution of the biotinylated peptide in PBS/BSA for 10 minutes at 4° C., followed by an additional 20 minute incubation at 25° C. The plate is washed 3 times with ice cold PBS.
(§4) (3) The binding of the biotinylated peptide to the GST/PDZ fusion protein surface can be detected using a variety of methods and detectors known to one of skill in the art. In one embodiment, 100 μl per well of 0.5 μg/ml streptavidin-horseradish peroxidase (HRP) conjugate dissolved in BSA/PBS is added and allowed to react for 20 minutes at 4° C. The plate is then washed 5 times with 50 mM Tris pH 8.0 containing 0.2% Tween 20, and developed by addition of 100 μl per well of HRP-substrate solution (TMB, Dako) for 20 minutes at room temperature (RT). The reaction of the HRP and its substrate is terminated by addition of 100 μl per well of 1 M sulfuric acid, and the optical density (O.D.) of each well of the plate is read at 450 um.
(§5) (4) Specific binding of a PL peptide and a PDZ domain polypeptide is determined by comparing the signal from the well(s) in which the PL peptide and PDZ domain polypeptide are combined, with the background signal(s). […] Typically a specific or selective reaction will be at least twice background signal, more typically more than 5 times background, and most typically 10 or more times the background signal. […] Correspondingly, a statistical test (e.g. a T-test) comparing repeated measurements of the signal with -repeated measurements of the background will result in a p-value <0.05, more typically a p-value <0.01, and most typically a p-value <0.001 or less. As noted, in an embodiment of the G assay, the signal from binding of a given PL peptide to immobilized (surface bound) GST polypeptide alone is one suitable negative control (sometimes referred to as B1). Because all measurement are done in multiples (i.e. at least duplicate) the arithmetic mean (or, equivalently, average.) of several measurements is used in determining the binding, and the standard error of the mean is used in determining the probable error in the measurement of the binding. The standard error of the mean of N measurements equals the square root of the following: the sum of the squares of the difference between each measurement and the mean, divided by the product of (N) and (N−1). Thus, in one embodiment, specific binding of the PDZ protein to the platebound peptide is determined by comparing the mean signal (“mean S”) and standard error of the signal (“SE”) for a particular PL-PDZ combination with the mean B1.

[3] = target: T1, ZO-1 d2; test: as above; conditions: Table 11, titrations or binding assays
Experimental: as §1, §2, §3, §4, §5

Compound | EC50 [1] [nM] | PDZ domain bound [2] | PDZ domain bound [3]
CC[C@H](C)[C@H](NC(=O)[C@H](CO)NC(=O)[C@@H](NC(=O)[C@H](C)NC(=O)[C@H](C)NC(=O)[C@@H](NC(=O)[C@H](C)NC(=O)[C@H](CCCNC(=N)N)NC(=O)[C@H](CCCNC(=N)N)NC(=O)[C@H](CCCNC(=N)N)NC(=O)[C@H](CCC(N)=O)NC(=O)[C@H](CCCNC(=N)N)NC(=O)[C@H](CCCNC(=N)N)NC(=O)[C@H](CCCCN)NC(=O)[C@H](CCCCN)NC(=O)[C@H](CCCNC(=N)N)NC(=O)CNC(=O)[C@H](Cc1ccc(O)cc1)NC(=O)CCCC[C@@H]1SC[C@@H]2NC(=O)N[C@@H]21)C(C)C)[C@@H](C)O)C(=O)N[C@@H](CC(N)=O)C(=O)N[C@@H](CC(C)C)C(=O)O [Peptide 1791] (Biotin-YGRKKRRQRRRAVAATSINL-OH) | < 100 |  | 
CC[C@H](C)[C@H](NC(=O)[C@H](CCCCN)NC(=O)[C@H](CCCNC(=N)N)NC(=O)[C@H](CC(=O)O)NC(=O)CNC(=O)[C@H](CCCNC(=N)N)NC(=O)[C@H](C)NC(=O)[C@H](CCCNC(=N)N)NC(=O)[C@H](CCCNC(=N)N)NC(=O)[C@H](CCCNC(=N)N)NC(=O)[C@H](CCC(N)=O)NC(=O)[C@H](CCCNC(=N)N)NC(=O)[C@H](CCCNC(=N)N)NC(=O)[C@H](CCCCN)NC(=O)[C@H](CCCCN)NC(=O)[C@H](CCCNC(=N)N)NC(=O)CNC(=O)[C@H](Cc1ccc(O)cc1)NC(=O)CCCC[C@@H]1SC[C@@H]2NC(=O)N[C@@H]21)C(=O)N[C@@H](CCCNC(=N)N)C(=O)N[C@H](C(=O)O)C(C)C [Peptide 1836] (Biotin-YGRKKRRQRRRARGDRKIRV-OH) | < 10 |  | 
DFRPSFKHILFRRARRGFRQ |  | INADL D3 | ZO-1 D2
ELLQFCRTPNPALKNGQYWV |  | INADL D3 | ZO-1 D2
ENLELPVNPSSVVSERISSV (Biotin-ENLELPVNPSSVVSERISSV) |  | INADL D3 | 
FHSKTAGANTTDKELEVLSL |  | INADL D3 | ZO-1 D2
GRWTGRAMSAWKPTRRETEV (Biotin-GRWTGRAMSAWKPTRRETEV) |  | INADL D3 | 
HAMNAAPRAMENAPALRTSH (Biotin-HAMNAAPRAMENAPALRTSH) |  | INADL D3 | 
HDFRRAFKKILARGDRKRIV |  | INADL D3 | ZO-1 D2
HHLVAQRDIRQFQLQHWLAI |  | INADL D3 | ZO-1 D2
HSCCNRARQERLQRRRETQV (Biotin-HSCCNRARQERLQRRRETQV; cysteine pairing not given here) |  | INADL D3 | ZO-1 D2
ILNSIQVMRAQMNQIQSVEV |  | INADL D3 | ZO-1 D2
KHSRKSSSYSSSSTTVKTSY |  | INADL D3 | ZO-1 D2
KKKKQPGNSTKESESTNSVRLML |  | INADL D3 | ZO-1 D2
LASKSAEEGKQIPDSLSTDL |  | INADL D3 | 
LAVLAYSITLVMLWSIWQYA |  | INADL D3 | ZO-1 D2
LNSCSNRRVYKKMPSIESDV (Biotin-LNSCSNRRVYKKMPSIESDV) |  | INADL D3 | ZO-I D2
LQFHRGSRAQSFLQTETSVI |  | INADL D3 | 
NYKLNTDHAGSNDNIALLVQ (Biotin-NYKLNTDHAGSNDNIALLVQ) |  |  | ZO-1 D2
PGQPPKVKSEFNSYSLTGYV |  | INADL D3 | 
PIPAGGCTFSGIFPTLTSPL |  | INADL D3 | 
PSSRASSRASSRPRPDDLEI |  |  | ZO-1 D2
QDFRRAFRRILARPWTQTAW |  | INADL D3 | ZO-1 D2
RELVDRGEVRQFTLRHWLKV |  | INADL D3 | ZO-I D2
RRRRRRRGNTTDKELEVLSL |  |  | ZO-1 D2
RRRRRRRGTNPAVAATSANL |  |  | ZO-1 D2
RSGATIPLVGQDIIDLQTEV |  | INADL D3 | 

Compound | EC50 [1] [nM] | PDZ domain bound [2] | PDZ domain bound [3]
SLIGPVQKEYQRELGKLSSP |  | INADL D3 | 
SSKSKSSEESQTFFGLYKL |  | INADL D3 | ZO-1 D2
SSSRRDSSWSETSEASYSGL |  |  | ZO-1 D2
STDNLVRPFMDTLASHQLYI |  | INADL D3 | 
TEGNESSEATSPVNAIYSLA |  |  | ZO-1 D2
TQGFPGPATWRRISSLESEV |  | INADL D3 | 
TTNNNPNSAVNIKKIFTDV (Biotin-TTNNNPNSAVNIKKIFTDV) |  | INADL D3 | ZO-1 D2
VDPNSPAAKKKYVSYNNLVI (Biotin-VDPNSPAAKKKYVSYNNLVI) |  | INADL D3 | ZO-1 D2
VHKVRNKFKAKCSLCRLYII (Biotin-VHKVRNKFKAKCSLCRLYII; cysteine pairing not given here) |  | INADL D3 | ZO-1 D2
VPSDNIDSQGRNASTNDSLL (Biotin-VPSDNIDSQGRNASTNDSLL) |  | INADL D3 | 
YGRKKRRQRRRARGDRKRIV (Biotin-YGRKKRRQRRRARGDRKRIV) |  |  | ZO-1 D2
YGRKKRRQRRRARGDRKRWA (Biotin-YGRKKRRQRRRARGDRKRWA) |  |  | ZO-1 D2
YGRKKRRQRRRARGDRKRWL (Biotin-YGRKKRRQRRRARGDRKRWL) |  |  | ZO-1 D2
YGRKKRRQRRRARSDRGIWA (Biotin-YGRKKRRQRRRARSDRGIWA) |  |  | ZO-1 D2
YGRKKRRQRRRAVAAASANL (Biotin-YGRKKRRQRRRAVAAASANL) |  |  | ZO-1 D2
YGRKKRRQRRRAVAATSANL |  | INADL D3 | ZO-1 D2
YGRKKRRQRRRAVAATYSNL (Biotin-YGRKKRRQRRRAVAATYSNL) |  |  | ZO-1 D2
YGRKKRRQRRRDKELEVLSL |  |  | ZO-1 D2
YGRKKRRQRRREYLGLDVPV |  | INADL D3 | ZO-1 D2
YGRKKRRQRRRGASADSTQA |  |  | ZO-1 D2
YGRKKRRQRRRKLSSIESDV (Biotin-YGRKKRRQRRRKLSSIESDV) |  |  | ZO-1 D2
YGRKKRRQRRRNDNIALLVQ |  |  | ZO-1 D2
YGRKKRRQRRRQDEEEGIWA (Biotin-YGRKKRRQRRRQDEEEGIWA) |  |  | ZO-1 D2
YGRKKRRQRRRSEGVPDLLV |  |  | ZO-1 D2
YSATYSELEDPGEMSPPIDL (Biotin-YSATYSELEDPGEMSPPIDL) |  | INADL D3 | 
YVYSRVKNLNSSEGVPDLLV (Biotin-YVYSRVKNLNSSEGVPDLLV) |  |  | ZO-1 D2

Reference: patent publication US20080119412A1, “Polypeptides for Modulating Binding of Trp Channel Proteins and Trp- Associated Proteins” (NoNO Inc., priority 2003, published 2008)
